Consider 6 substances from publication PMC3315485.

Assay in all cases: MITOMI
Series [1] relates to MarA RQR (Escherichia coli). Particulars: MITOMI at 295 K; buffer, salt and pH not given in the material.
For series [2], the system named is MarA wild type (WQR) (Escherichia coli). As to conditions: MITOMI at 295 K; buffer, salt and pH not given in the material.
Series [3] deals with MarA RTR (Escherichia coli). As to conditions: MITOMI at 295 K; buffer, salt and pH not given in the material; scale: ddG kJ/mol vs strongest site.
Series [4] relates to MarA TRR (Escherichia coli). As to conditions: MITOMI at 295 K; buffer, salt and pH not given in the material.

A value given as a limit tells only on which side of the number the result lay.

Regarding mar site GCA, in series [1], the binding signal (fold reduced affinity vs TCC) amounted to 1.6. Besides, the binding signal (relative KA (strongest site = 1)) in series [2] worked out at 1.
mar site GAC: the binding signal in series [3] is more than 3.3. Moreover, in series [4], the binding signal (relative KA (strongest site = 1)) amounted to 1.
For the substance mar site TCC, the binding signal (relative KA (strongest site = 1)) in series [1] was found to be 1.
Consider mar site GAG, for which, in series [3], the binding signal is more than 3.3.
For the substance mar site GAT, in series [3], the binding signal is more than 3.3.
The same measure, in the same setting: under mar site GAA stands more than 3.3.
